Key:
CIPK23-His = target: T1, CIPK23-His (Arabidopsis, UniProt Q93VD3 1-482); experiment: pull-down; GST-ZIP2-Loop (or GST) on glutathione beads incubated with His-CIPK3/9/23/26; eluate blotted with anti-His antibody; details: both partners purified
T1 construct: amplified and cloned into pET30a; Printed both as CIPK3/9/23/26-His and as His-CIPK3/9/23/26, so the end of the tag is open; also called His-CIPK23; source: recombinant, cloned into pET30a
T1 sequence (looked up): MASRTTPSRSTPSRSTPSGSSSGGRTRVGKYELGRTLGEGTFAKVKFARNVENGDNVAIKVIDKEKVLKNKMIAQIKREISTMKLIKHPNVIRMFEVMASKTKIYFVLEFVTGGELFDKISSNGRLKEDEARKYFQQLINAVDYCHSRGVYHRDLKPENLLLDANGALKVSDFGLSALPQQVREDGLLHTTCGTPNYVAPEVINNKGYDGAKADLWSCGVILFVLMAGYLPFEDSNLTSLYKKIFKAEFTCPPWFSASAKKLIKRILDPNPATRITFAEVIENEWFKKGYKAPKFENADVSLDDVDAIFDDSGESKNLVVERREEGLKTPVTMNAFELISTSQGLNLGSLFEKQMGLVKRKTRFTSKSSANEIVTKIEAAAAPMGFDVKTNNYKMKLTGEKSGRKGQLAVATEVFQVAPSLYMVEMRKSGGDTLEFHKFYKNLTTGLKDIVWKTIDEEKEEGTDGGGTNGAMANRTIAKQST

CIPK26-His = target: T2, CIPK26-His (Arabidopsis, UniProt Q84VQ3 1-439); experiment: as above; details: both partners purified
T2 construct: amplified and cloned into pET30a; Printed both as CIPK3/9/23/26-His and as His-CIPK3/9/23/26, so the end of the tag is open; also called His-CIPK26; source: recombinant, cloned into pET30a
T2 sequence (looked up): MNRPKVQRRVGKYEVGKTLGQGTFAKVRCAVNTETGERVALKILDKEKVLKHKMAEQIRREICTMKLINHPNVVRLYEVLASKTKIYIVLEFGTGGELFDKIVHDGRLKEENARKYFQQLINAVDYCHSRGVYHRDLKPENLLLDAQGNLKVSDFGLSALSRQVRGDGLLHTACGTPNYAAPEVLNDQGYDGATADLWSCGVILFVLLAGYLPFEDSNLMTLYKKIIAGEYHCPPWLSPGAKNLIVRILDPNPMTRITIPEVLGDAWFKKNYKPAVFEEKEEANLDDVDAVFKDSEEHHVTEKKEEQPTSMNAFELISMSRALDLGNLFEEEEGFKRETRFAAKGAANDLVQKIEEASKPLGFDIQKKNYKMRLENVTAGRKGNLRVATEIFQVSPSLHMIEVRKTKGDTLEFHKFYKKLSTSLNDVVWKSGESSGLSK

B1: GST-ZIP2-Loop (domain or fragment, Arabidopsis, UniProt Q9LTH9 151-203, looked up)
chain: VAAGSNNNHVGASVGESREDDDVAVKEEGRREIKSGVDVSQALIRTSGFGDTA
notes: Zn transporter ZIP2, Arabidopsis; the largest Loop domain, residues 151-203 (451-609 bp of the CDS); Printed as GST-ZIP2-Loop and as ZIP2-Loop-GST; pGEX4T-1 normally places GST at the N-terminus (surmised); also called ZIP2-Loop-GST; source: prokaryotic fusion protein (pGEX4T-1), purified
Question: Does B1 bind (CIPK23-His)?
Answer: Result: binds

Question: Does B1 bind (CIPK26-His)?
Answer: Result: binds
